This note sets out measurements from doi:10.1101/2022.12.14.520423.

The data set has as its target T1, CLAMP (CLAMPmel) (Drosophila melanogaster, UniProt Q9V9N4 1-561).
T1 sequence: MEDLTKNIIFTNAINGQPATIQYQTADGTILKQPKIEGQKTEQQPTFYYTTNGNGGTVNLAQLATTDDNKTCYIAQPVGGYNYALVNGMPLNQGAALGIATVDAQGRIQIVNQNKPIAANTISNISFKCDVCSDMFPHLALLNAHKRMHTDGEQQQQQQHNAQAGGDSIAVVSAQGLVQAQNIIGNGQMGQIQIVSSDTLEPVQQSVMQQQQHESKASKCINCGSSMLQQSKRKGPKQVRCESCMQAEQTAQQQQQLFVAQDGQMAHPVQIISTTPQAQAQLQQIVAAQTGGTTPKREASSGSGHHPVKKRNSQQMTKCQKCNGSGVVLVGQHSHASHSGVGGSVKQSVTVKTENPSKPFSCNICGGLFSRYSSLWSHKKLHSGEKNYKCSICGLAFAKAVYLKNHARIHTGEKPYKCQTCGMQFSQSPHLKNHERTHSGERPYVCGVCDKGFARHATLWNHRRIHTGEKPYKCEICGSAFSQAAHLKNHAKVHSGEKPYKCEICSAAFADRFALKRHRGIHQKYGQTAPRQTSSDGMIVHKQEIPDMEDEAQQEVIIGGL
The data set is described as follows: EMSA. (In EMSA bound probe runs differently from free probe, usually more slowly.)

B1: Dvir 2 (dsDNA)
DNA 1: TACCAAAAACTCAAAAAGACGAGCGAGTGAAAACATATTTCCATCTCGCTCACATACTAC
DNA 2: GTAGTATGTGAGCGAGATGGAAATATGTTTTCACTCGCTCGTCTTTTTGAGTTTTTGGTA
For B1, the binding result is “binds”.
